Measurements from article PMC11043367.

B1: human MYADM (myeloid-associated differentiation marker), HA-tagged, Q96S97 D276E; V277H; S278N (protein)
chain: MPVTVTRTTITTTTTSSSGLGSPMIVGSPRALTQPLGLLRLLQLVSTCVAFSLVASVGAWTGSMGNWSMFTWCFCFSVTLIILIVELCGLQARFPLSWRNFPITFACYAALFCLSASIIYPTTYVQFLSHGRSRDHAIAATFFSCIACVAYATEVAWTRARPGEITGYMATVPGLLKVLETFVACIIFAFISDPNLYQHQPALEWCVAVYAICFILAAIAILLNLGECTNVLPIPFPSFLSGLALLSVLLYATALVLWPLYQFDEKYGGQPRRSREHNCSRSHAYYVCAWDRRLAVAILTAINLLAYVADLVHSAHLVFVKV

How the values were obtained:
[1] = biological target: human parechovirus 1 (PeV-A1) particles, Harris strain; assay: co-immunoprecipitation with anti-HA beads, RT-qPCR of viral RNA; details: IP, read off a plot
[2] = biological target: T1, Flag-tagged PeV-A1 virus particles; assay: pH-dependent virus particle binding assay (anti-HA immunoprecipitation), RT-qPCR of viral RNA; details: chain shown with the change, read off a plot
T1 chain 1: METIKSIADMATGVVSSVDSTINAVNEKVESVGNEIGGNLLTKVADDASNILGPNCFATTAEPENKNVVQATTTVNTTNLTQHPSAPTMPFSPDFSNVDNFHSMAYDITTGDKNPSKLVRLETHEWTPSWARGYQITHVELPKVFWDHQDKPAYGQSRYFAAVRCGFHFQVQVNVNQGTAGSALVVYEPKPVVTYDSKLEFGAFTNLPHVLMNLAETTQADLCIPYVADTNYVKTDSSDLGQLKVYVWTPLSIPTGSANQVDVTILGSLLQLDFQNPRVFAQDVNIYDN
T1 chain 2: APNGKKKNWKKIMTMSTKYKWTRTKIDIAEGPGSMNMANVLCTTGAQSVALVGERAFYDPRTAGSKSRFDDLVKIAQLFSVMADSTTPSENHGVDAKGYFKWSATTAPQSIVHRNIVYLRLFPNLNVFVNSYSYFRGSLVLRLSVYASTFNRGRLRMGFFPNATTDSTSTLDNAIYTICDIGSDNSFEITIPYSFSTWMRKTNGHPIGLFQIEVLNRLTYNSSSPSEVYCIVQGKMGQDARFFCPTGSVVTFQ
T1 chain 3: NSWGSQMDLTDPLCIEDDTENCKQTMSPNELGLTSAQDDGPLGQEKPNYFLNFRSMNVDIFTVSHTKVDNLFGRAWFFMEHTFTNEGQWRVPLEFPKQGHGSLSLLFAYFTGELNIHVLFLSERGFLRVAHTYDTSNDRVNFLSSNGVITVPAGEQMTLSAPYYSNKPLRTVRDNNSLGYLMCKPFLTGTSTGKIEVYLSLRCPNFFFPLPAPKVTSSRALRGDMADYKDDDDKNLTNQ

Molecule	response (relative to Vero) ([1]; 0 min after infection, parent: est. 25)	response (relative to Vero) ([1]; 15 min after infection, 37 °C, parent: est. 52)	response (relative to Vero) ([1]; 30 min after infection, 37 °C, parent: est. 60)	response (relative to Vero) ([2]; virus particle IP buffer pH 5.5, parent: est. 3.0)	response (relative to Vero) ([2]; virus particle IP buffer pH 6.0, parent: est. 6.2)	response (relative to Vero) ([2]; virus particle IP buffer pH 6.5, parent: est. 5.3)	response (relative to Vero) ([2]; virus particle IP buffer pH 7.4, parent: est. 1.1)
human MYADM (myeloid-associated differentiation marker), HA-tagged (from UniProt Q96S97) D276E; V277H; S278N	5	1.5	5	–	–	–	–
B1	–	–	–	1	1	1	1.1
